Where a chain is given by its changes, count along the chain named.
Key:
Assay in all cases: SPR
[1] = molecular target: T1, pAPN ectodomain K374A mutant (pig, UniProt P15145 58-961, K374A)
T1 sequence: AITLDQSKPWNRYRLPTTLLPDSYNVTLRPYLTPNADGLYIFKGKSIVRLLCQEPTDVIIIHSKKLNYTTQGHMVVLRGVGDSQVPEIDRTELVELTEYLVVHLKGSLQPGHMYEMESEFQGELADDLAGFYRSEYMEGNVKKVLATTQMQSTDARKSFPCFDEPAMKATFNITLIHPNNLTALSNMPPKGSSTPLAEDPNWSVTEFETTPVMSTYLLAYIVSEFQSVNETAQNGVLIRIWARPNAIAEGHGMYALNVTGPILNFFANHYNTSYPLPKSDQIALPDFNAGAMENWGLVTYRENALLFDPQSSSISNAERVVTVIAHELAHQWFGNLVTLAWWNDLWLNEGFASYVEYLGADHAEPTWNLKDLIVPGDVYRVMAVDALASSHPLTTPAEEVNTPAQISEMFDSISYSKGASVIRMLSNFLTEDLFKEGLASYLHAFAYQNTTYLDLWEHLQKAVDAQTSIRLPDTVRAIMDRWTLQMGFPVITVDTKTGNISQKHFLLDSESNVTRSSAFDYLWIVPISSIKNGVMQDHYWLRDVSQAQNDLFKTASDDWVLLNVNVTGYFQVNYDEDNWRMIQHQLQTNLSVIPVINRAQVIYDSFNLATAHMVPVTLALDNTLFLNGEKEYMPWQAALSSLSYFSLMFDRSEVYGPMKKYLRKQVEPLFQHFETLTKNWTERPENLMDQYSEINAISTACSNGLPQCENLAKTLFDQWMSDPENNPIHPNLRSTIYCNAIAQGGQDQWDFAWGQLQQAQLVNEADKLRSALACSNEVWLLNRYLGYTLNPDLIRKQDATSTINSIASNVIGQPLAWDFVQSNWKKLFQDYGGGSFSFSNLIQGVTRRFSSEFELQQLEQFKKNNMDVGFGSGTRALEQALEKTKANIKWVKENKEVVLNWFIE

[2] = molecular target: T2, pAPN ectodomain W424A mutant (pig, UniProt P15145 58-961, W424A)
T2 sequence: T1 sequence with A317K, W367A

[3] = molecular target: T3, porcine aminopeptidase N (pAPN) ectodomain, residues 58-961, wild type (pig, UniProt P15145 58-961)
T3 chain: T1 sequence with A317K

[4] = molecular target: hAPN ectodomain E426A mutant (human, UniProt P15144 62-963, E426A)
[5] = molecular target: hAPN ectodomain Y316A mutant (human, UniProt P15144 62-963, Y316A)
[6] = molecular target: hAPN ectodomain E745A mutant (human, UniProt P15144 62-963, E745A)
Chain of hAPN ectodomain E745A mutant (P15144 62-963 E745A): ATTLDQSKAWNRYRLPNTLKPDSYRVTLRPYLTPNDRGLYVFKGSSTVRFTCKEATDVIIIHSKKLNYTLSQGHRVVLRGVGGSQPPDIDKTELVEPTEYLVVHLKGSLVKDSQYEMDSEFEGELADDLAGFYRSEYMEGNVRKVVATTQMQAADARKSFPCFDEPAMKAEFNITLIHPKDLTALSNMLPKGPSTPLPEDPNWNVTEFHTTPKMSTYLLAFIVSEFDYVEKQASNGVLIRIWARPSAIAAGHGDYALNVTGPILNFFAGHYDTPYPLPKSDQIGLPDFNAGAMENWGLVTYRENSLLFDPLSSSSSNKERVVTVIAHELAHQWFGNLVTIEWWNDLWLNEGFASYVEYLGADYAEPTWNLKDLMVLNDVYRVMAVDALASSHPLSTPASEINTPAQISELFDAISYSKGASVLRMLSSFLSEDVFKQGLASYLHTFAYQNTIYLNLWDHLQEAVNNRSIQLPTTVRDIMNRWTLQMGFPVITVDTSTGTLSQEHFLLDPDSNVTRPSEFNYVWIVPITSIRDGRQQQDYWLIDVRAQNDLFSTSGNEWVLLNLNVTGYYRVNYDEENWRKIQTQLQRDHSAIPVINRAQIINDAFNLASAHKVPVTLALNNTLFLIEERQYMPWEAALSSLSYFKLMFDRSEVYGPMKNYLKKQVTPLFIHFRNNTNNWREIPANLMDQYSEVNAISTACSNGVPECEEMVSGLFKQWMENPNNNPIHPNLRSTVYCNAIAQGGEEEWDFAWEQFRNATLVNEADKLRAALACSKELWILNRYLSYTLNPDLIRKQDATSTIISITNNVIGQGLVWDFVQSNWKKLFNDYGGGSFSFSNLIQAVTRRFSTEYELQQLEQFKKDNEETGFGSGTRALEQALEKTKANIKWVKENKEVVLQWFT

Chain of hAPN ectodomain Y316A mutant (P15144 62-963 Y316A): as the sequence (P15144 62-963 E745A) above, with Y255A, A684E counted along it

B1: PDCoV spike (S) protein receptor binding domain (RBD), residues 300-419, wild type (domain or fragment)
chain: PKLPELEVVQLNISAHMDFGEARLDSVTINGNTSYCVTKPYFRLETNFMCTGCTMNLRTDTCSFDLSAVNNGMSFSQFCLSTESGACEMKIIVTYVWNYLLRQRLYVTAVEGQTHTGTTS
For B1, the Kd [1] was > 1000 µM, the Kd [2] was 116 µM and the Kd [3] was 44.2 µM. The Kd [4] was 334 µM, the Kd [5] was 37.1 µM and the Kd [6] was 3.06 µM.
